Consider 2 substances from publication PMC11281638.

In this assay the target is Sso7d-IN (full-length HIV-1 integrase fused to Sso7d) (not stated | HIV-1). The assay is described as follows: semi-quantitative SDS-PAGE (Coomassie) of the purified complex.

“IN-CTD (HIV-1 integrase residues 185-288), His-tagged (from UniProt P12497 186-289) (domain or fragment)” returned a stoichiometry N (CTD per full-length IN) of 0.3.

Consider “LEDGF-IBD (lens epithelium-derived growth factor IN-binding domain, residues 307-460), His-tagged (from UniProt O75475 307-460) (domain or fragment)”, for which the stoichiometry N (IBD per full-length IN) turned out to be 1.
